Earlier results on one substance are cited in paper doi:10.1101/2024.03.27.586990.

The series concerns the target Asp27 (UniProt position 27, WNLPADLAWFK). The settings on record: unbound state (no inhibitor), as described by this article.

One may read the pKa as the pH at which an ionisable group is half protonated. In the case of “Dihydrofolate reductase (DHFR) (Escherichia coli)”, the pKa is 6.5.
